This passage reports minimum positive concentration results from WO2021212049A2.

The target in this assay is recombinant SARS-CoV-2 S protein ectodomain (residues 14-1211), 2P, furin site mutated, foldon, 8XHis (SARS-CoV-2) (UniProt P0DTC2). The assay is described as follows: ELISA on coated antigen, anti-human IgG-HRP.

Regarding mAb 2B04 (antibody), the minimum positive concentration is less than 5 µg/mL.
